The labels stand for the following.
B1: M-Q6PJG6 (protein, UniProt Q6PJG6 1-821, looked up)
Integrator complex assembly …: MDPECAQLLPALCAVLVDPRQPVADDTCLEKLLDWFKTVTEGESSVVLLQEHPCLVELLSHVLKVQDLSSGVLSFSLRLAGTFAAQENCFQYLQQGELLPGLFGEPGPLGRATWAVPTVRSGWIQGLRSLAQHPSALRFLADHGAVDTIFSLQGDSSLFVASAASQLLVHVLALSMRGGAEGQPCLPGGDWPACAQKIMDHVEESLCSAATPKVTQALNVLTTTFGRCQSPWTEALWVRLSPRVACLLERDPIPAAHSFVDLLLCVARSPVFSSSDGSLWETVARALSCLGPTHMGPLALGILKLEHCPQALRTQAFQVLLQPLACVLKATVQAPGPPGLLDGTADDATTVDTLLASKSSCAGLLCRTLAHLEELQPLPQRPSPWPQASLLGATVTVLRLCDGSAAPASSVGGHLCGTLAGCVRVQRAALDFLGTLSQGTGPQELVTQALAVLLECLESPGSSPTVLKKAFQATLRWLLSSPKTPGCSDLGPLIPQFLRELFPVLQKRLCHPCWEVRDSALEFLTQLSRHWGGQADFRCALLASEVPQLALQLLQDPESYVRASAVTAMGQLSSQGLHAPTSPEHAEARQSLFLELLHILSVDSEGFPRRAVMQVFTEWLRDGHADAAQDTEQFVATVLQAASRDLDWEVRAQGLELALVFLGQTLGPPRTHCPYAVALPEVAPAQPLTEALRALCHVGLFDFAFCALFDCDRPVAQKSCDLLLFLRDKIASYSSLREARGSPNTASAEATLPRWRAGEQAQPPGDQEPEAVLAMLRSLDLEGLRSTLAESSDHVEKSPQSLLQDMLATGGFLQGDEADCY
B2: M-Q8NEW0 (protein, UniProt Q8NEW0 1-376, looked up)
Zinc transporter 7: MLPLSIKDDEYKPPKFNLFGKISGWFRSILSDKTSRNLFFFLCLNLSFAFVELLYGIWSNCLGLISDSFHMFFDSTAILAGLAASVISKWRDNDAFSYGYVRAEVLAGFVNGLFLIFTAFFIFSEGVERALAPPDVHHERLLLVSILGFVVNLIGIFVFKHGGHGHSHGSGHGHSHSLFNGALDQAHGHVDHCHSHEVKHGAAHSHDHAHGHGHFHSHDGPSLKETTGPSRQILQGVFLHILADTLGSIGVIASAIMMQNFGLMIADPICSILIAILIVVSVIPLLRESVGILMQRTPPLLENSLPQCYQRVQQLQGVYSLQEQHFWTLCSDVYVGTLKLIVAPDADARWILSQTHNIFTQAGVRQLYVQIDFAAM
modifications: interaction partner of viral M protein
B3: M-Q7RTS9 (protein, UniProt Q7RTS9 2-669, looked up)
Dymeclin: GSNSSRIGDLPKNEYLKKLSGTESISENDPFWNQLLSFSFPAPTSSSELKLLEEATISVCRSLVENNPRTGNLGALIKVFLSRTKELKLSAECQNHIFIWQTHNALFIICCLLKVFICQMSEEELQLHFTYEEKSPGNYSSDSEDLLEELLCCLMQLITDIPLLDITYEISVEAISTMVVFLSCQLFHKEVLRQSISHKYLMRGPCLPYTSKLVKTLLYNFIRQEKPPPPGAHVFPQQSDGGGLLYGLASGVATGLWTVFTLGGVGSKAAASPELSSPLANQSLLLLLVLANLTDASDAPNPYRQAIMSFKNTQDSSPFPSSIPHAFQINFNSLYTALCEQQTSDQATLLLYTLLHQNSNIRTYMLARTDMENLVLPILEILYHVEERNSHHVYMALIILLILTEDDGFNRSIHEVILKNITWYSERVLTEISLGSLLILVVIRTIQYNMTRTRDKYLHTNCLAALANMSAQFRSLHQYAAQRIISLFSLLSKKHNKVLEQATQSLRGSLSSNDVPLPDYAQDLNVIEEVIRMMLEIINSCLTNSLHHNPNLVYALLYKRDLFEQFRTHPSFQDIMQNIDLVISFFSSRLLQAGAELSVERVLEIIKQGVVALPKDRLKKFPELKFKYVEEEQPEEFFIPYVWSLVYNSAVGLYWNPQDIQLFTMDSD
modifications: interactor of viral M protein
B4: M-Q86UL3 (protein, UniProt Q86UL3 38-456, looked up)
Glycerol-3-phosphate …: VSFGIRKLYMKSLLKIFAWATLRMERGAKEKNHQLYKPYTNGIIAKDPTSLEEEIKEIRRSGSSKALDNTPEFELSDIFYFCRKGMETIMDDEVTKRFSAEELESWNLLSRTNYNFQYISLRLTVLWGLGVLIRYCFLLPLRIALAFTGISLLVVGTTVVGYLPNGRFKEFMSKHVHLMCYRICVRALTAIITYHDRENRPRNGGICVANHTSPIDVIILASDGYYAMVGQVHGGLMGVIQRAMVKACPHVWFERSEVKDRHLVAKRLTEHVQDKSKLPILIFPEGTCINNTSVMMFKKGSFEIGATVYPVAIKYDPQFGDAFWNSSKYGMVTYLLRMMTSWAIVCSVWYLPPMTREADEDAVQFANRVKSAIARQGGLVDLLWDGGLKREKVKDTFKEEQQKLYSKMIVGNHKDRSRS
modifications: interactor of M protein
B5: M-Q8NDZ4 (protein, UniProt Q8NDZ4 36-430, looked up)
Divergent protein kinase …: LASWQRNELTDRRFLQLNKCPACFGTSWCRRFLNGQVVFEAWGRLRLLDFLNVKNVYFAQYGEPREGGRRRVVLKRLGSQRELAQLDQSICKRATGRPRCDLLQAMPRTEFARLNGDVRLLTPEAVEGWSDLVHCPSQRLLDRLVRRYAETKDSGSFLLRNLKDSERMQLLLTLAFNPEPLVLQSFPSDEGWPFAKYLGACGRMVAVNYVGEELWSYFNAPWEKRVDLAWQLMEIAEQLTNNDFEFALYLLDVSFDNFAVGPRDGKVIIVDAENVLVADKRLIRQNKPENWDVWYESKFDDCDKEACLSFSKEILCARATVDHNYYAVCQNLLSRHATWRGTSGGLLHDPPSEIAKDGRLEALLDECANPKKRYGRFQAAKELREYLAQLSNNVR
B6: M-Q68DH5 (protein, UniProt Q68DH5 1-695, looked up)
G-protein coupled …: MSGAALGLEIVFVFFLALFLLHRYGDFKKQHRLVIIGTLLAWYLCFLIVFILPLDVSTTIYNRCKHAAANSSPPENSNITGLYATANPVPSQHPCFKPWSYIPDGIMPIFWRVVYWTSQFLTWILLPFMQSYARSGGFSITGKIKTALIENAIYYGTYLLIFGAFLIYVAVNPHLHLEWNQLQTIGIAAANTWGLFLLVLLLGYGLVEIPRSYWNGAKRGYLLMKTYFKAAKLMTEKADAEENLEDAMEEVRKVNESIKYNHPLRKCVDTILKKCPTEYQEKMGRNMDDYEDFDEKHSIYPSEKSLVKLHKQVIYSVQRHRRTQVQWQILLEQAFYLEDVAKNETSATHQFVHTFQSPEPENRFIQYFYNPTFEWYWECLLRPWFYKILAVVLSIFSVIVVWSECTFFSTTPVLSLFAVFIQLAEKTYNYIYIEIACFLSIFFLSICVYSTVFRIRVFNYYYLASHHQTDAYSLLFSGMLFCRLTPPLCLNFLGLTHMDSSISHKNTQPTAYTSIMGSMKVLSFIADGFYIYYPMLVVILCIATYFSLGTRCLNLLGFQQFMGDDDMTSDLVNEGKELIRKEKRKRQRQEEGENRRREWKERYGHNREDSTRNRNIHTDPKESNFSDVNTNRSAFKYTRANNRTERDRIELLQDAEPLDFNAETFTDDPLESESGRYQPGGRYLSMSRSDIFNDV
modifications: interaction partner of SARS-CoV-2 M
B7: M-Q6AI08 (protein, UniProt Q6AI08 1-1181, looked up)
HEAT repeat-containing …: MAAVQVVGSWPSVQPREAPREAIPERGNGFRLLSARLCALRPDDSSSARTEIHLLFDQLISENYSEGSGVAPEDVSALLVQACRLVPLNQNHLVSKVSQLIHHLLNRLQVIVDEQHLDFLLAYTISAIHQCSSWTHREILQALAALVYCNGSKCQKYLPELLGNTGLLMKLSDLAQSDPEVRRAAVHCMANLCLSVPGQPYLEEPYQNVCFQAFLTILQSPKSSDMDDITFCMLLQNALKGIQSLLNGGRMKLTQTDELGALLAVLKKFMFHGLPGLNIEMPTVLYPTPLPQYDGRTPIKPQQSESSASRPTLNKKKKSKVKPKKIQQGEEEEKESSGEIEAAPVTGTGRVNLHEGNTWCPSSLGVQSLPLDGSGAAEKDGVSSSFSSSSWKRVSSSESDFSDAEGGMQSKMRSYQAKVRQGALVCFLSTIKSIEKKVLYGYWSAFIPDTPELGSPQSVSLMTLTLKDPSPKTRACALQVLSAILEGSKQFLSVAEDTSDHRRAFTPFSVMIACSIRELHRCLLLALVAESSSQTVTQIIKCLANLVSNAPYDRLKLSLLTKVWNQIKPYIRHKDVNVRVSSLTLLGAIVSTHAPLPEVQLLLQQPCSSGLGNSNSATPHLSPPDWWKKAPAGPSLEETSVSSPKGSSEPCWLIRLCISIVVLPKEDSCSGSDAGSAAGSTYEPSPMRLEALQVLTLLARGYFSMTQAYLMELGEVICKCMGEADPSIQLHGAKLLEELGTGLIQQYKPDSTAAPDQRAPVFLVVMFWTMMLNGPLPRALQNSEHPTLQASACDALSSILPEAFSNLPNDRQMLCITVLLGLNDSKNRLVKAATSRALGVYVLFPCLRQDVIFVADAANAILMSLEDKSLNVRAKAAWSLGNLTDTLIVNMETPDPSFQEEFSGLLLLKMLRSAIEASKDKDKVKSNAVRALGNLLHFLQPSHIEKPTFAEIIEESIQALISTVLTEAAMKVRWNACYAMGNVFKNPALPLGTAPWTSQAYNALTSVVTSCKNFKVRIRSAAALSVPGKREQYGSVDQYARIWNALVTALQKSEDTIDFLEFKYCVSLRTQICQALIHLLSLASASDLPCMKETLELSGNMVQSYILQFLKSGAEGDDTGAPHSPQERDQMVRMALKHMGSIQAPTGDTARRAIMGFLEEILAVCFDSSGSQGALPGLTNQ
modifications: interaction partner of SARS-CoV-2 M

The assay has as its system SARS-CoV-1, MERS-CoV and SARS-CoV-2 proteins in HEK293T cells. Details: species or system human.
Turning to B1, the MIST_MERS is on record as 0, the MIST_SARS1 is 0.9911, the MIST_SARS2 is on record as 0 and the Saint_MERS amounted to 0. Besides, the Saint_SARS1 is on record as 1 and the Saint_SARS2 is on record as 0.
Molecule B2 displayed an MIST_MERS of 0.5834, an MIST_SARS1 of 0.6222, an MIST_SARS2 of 0.767 and a Saint_MERS of 0.64. Also, the Saint_SARS1 was found to be 0.97 and the Saint_SARS2 came to 1.
Regarding B3, the MIST_MERS came out at 0, the MIST_SARS1 came out at 0.9893, the MIST_SARS2 was determined as 0 and the Saint_MERS is reported as 0. This molecule returned a Saint_SARS1 of 0.97 and a Saint_SARS2 of 0.
Consider B4, for which the MIST_MERS was 0.2998, the MIST_SARS1 worked out at 0.8496, the MIST_SARS2 came to 0.485 and the Saint_MERS is given as 0.31. This molecule also registered a Saint_SARS1 of 1 and a Saint_SARS2 of 0.96.
In turn, B5 came in with an MIST_MERS of 0.7477, an MIST_SARS1 of 0, an MIST_SARS2 of 0 and a Saint_MERS of 1. Further, the Saint_SARS1 came to 0 and the Saint_SARS2 is on record as 0.
Molecule B6 came in with an MIST_MERS of 0.9869, an MIST_SARS1 of 0.6855, an MIST_SARS2 of 0.2449 and a Saint_MERS of 0.95. For the same molecule, the Saint_SARS1 turned out to be 0 and the Saint_SARS2 was determined as 0.
B7 showed an MIST_MERS of 0, an MIST_SARS1 of 0.8284, an MIST_SARS2 of 0 and a Saint_MERS of 0. Further, the Saint_SARS1 came to 0.97 and the Saint_SARS2 was found to be 0.

The record behind these values is patent US20230395193A1 (priority 2020, published 2023).
